According to patent publication US20210373004A1 (BIOASTER, published 2021):

What was measured:
[1] = biological target: T1, Flag-EmGFP-ColE7-6His (Escherichia coli); test: EIA 8 plex n° 1: colicin coated at 100 nM, Im-RLuc8 alone at 100 nM, luciferase signal
T1 construct: also called Colicin E7

[2] = biological target: T2, Flag-mCherry-ColAP41-Cys-6His (Pseudomonas aeruginosa AP41); test: as above
[3] = biological target: T3, Flag-mCherry-ColSyr-Cys-6His (Pseudomonas syringae B728A); test: as above
[4] = biological target: T4, Flag-mCherry-ColE8-6His (Escherichia coli); test: EIA 8 plex n° 2: colicin coated at 100 nM, Im-RLuc8 alone at 100 nM, luciferase signal
T4 construct: also called Colicin E8

[5] = biological target: T5, Flag-mCherry-ColLeaf-Cys-6His (Pseudomonas sp Leaf83); test: as above
[6] = biological target: T6, Flag-mCherry-ColE9-6His (Escherichia coli); test: EIA 4 plex: colicin coated at 100 nM, Im-RLuc8 alone at 100 nM, luciferase signal (FIG. 1, light grey bars)
T6 construct: also called Colicin E9

[7] = biological target: T6, Flag-mCherry-ColE9-6His; test: EIA 8 plex n° 1: colicin coated at 100 nM, Im-RLuc8 alone at 100 nM, luciferase signal (FIG. 3, light grey bars)
[8] = biological target: T6, Flag-mCherry-ColE9-6His; test: EIA 8 plex n° 2: colicin coated at 100 nM, Im-RLuc8 alone at 100 nM, luciferase signal (FIG. 4, light grey bars)
[9] = biological target: T1, Flag-EmGFP-ColE7-6His; test: kinetics, literature value (Li W. et al., 2004) printed above the bar pair; unit from the legend paragraph 10
[10] = biological target: T4, Flag-mCherry-ColE8-6His; test: as above
[11] = biological target: T6, Flag-mCherry-ColE9-6His; test: as above
[12] = biological target: T2, Flag-mCherry-ColAP41-Cys-6His; test: EIA 8 plex n° 1: colicin coated at 100 nM, Im-RLuc8 at 100 nM, luminescence; light bar alone, dark bar with the 7 other unfused Im proteins
[13] = biological target: T3, Flag-mCherry-ColSyr-Cys-6His; test: as above
[14] = biological target: T5, Flag-mCherry-ColLeaf-Cys-6His; test: EIA 8 plex n° 2: colicin coated at 100 nM, Im-RLuc8 at 100 nM, luminescence; light bar alone, dark bar with the 7 other unfused Im proteins

B1: Myc-RLuc8-Im9-6His (other)
chain: MGGEQKLISEEDLGGSASKVYDPEQRKRMITGPQWWARCKQMNVLDSFINYYDSEKHAENAVIFLHGNATSSYLWRHVVPHIEPVARCIIPDLIGMGKSGKSGNGSYRLLDHYKYLTAWFELLNLPKKIIFVGHDWGAALAFHYAYEHQDRIKAIVHMESVVDVIESWDEWPDIEEDIALIKSEEGEKMVLENNFFVETVLPSKIMRKLEPEEFAAYLEPFKEKGEVRRPTLSWPREIPLVKGGKPDVVQIVRNYNAYLRASDDLPKLFIESDPGFFSNAIVEGAKKFPNTEFVKVKGLHFLQEDAPDEMGKYIKSFVERVLKNEQKLELKHSISDYTEAEFLQLVTTICNADTSSEEELVKLVTHFEEMTEHPSGSDLIYYPKEGDDDSPSGIVNTVKQWRAANGKLEGGGSHHHHHH
notes: Immunity protein fused to the luciferase RLuc8 as reporter; added in solution; also called Im9-RLuc8; Im9-Rluc8
[1]
  RLU: > 100000 RLU
[2]
  RLU: > 100000 RLU
[3]
  RLU: > 100000 RLU
[4]
  RLU: > 100000 RLU
[5]
  RLU: > 100000 RLU
[6]
  RLU: > 400000 RLU
[7]
  RLU: > 2e+06 RLU
[8]
  RLU: > 2.4e+06 RLU
[9]
  Kd: 38 nM
[10]
  Kd: 64 nM
[11]
  Kd: 0.024 pM
[12]
  binding result: no binding (tested: 100 nM)
[13]
  binding result: no binding (tested: 100 nM)
[14]
  binding result: no binding (tested: 100 nM)
